Results published in US20240391984A1.
Residue numbers refer to the chain shown, from its start. In names and notes the source's numbering stands.

B1: pAM146 (C1 domain of Protein L; pos 10 N, pos 45 N, pos 60 N) (protein)
chain: PEEEVTIKANLIFADGSTQNAEFKGTFAKAVSDAYAYADALKKDNGEYTVDVADKGLTLNIKFAGKKEKPEE
B2: pAM159 (C1 domain of Protein L; pos 10 Q, pos 45 A, pos 60 Q) (designed binder)
chain: B1 chain with N10Q, N45A, N60Q
B3: pAM172 (C1 domain of Protein L; pos 10 Y, pos 45 H, pos 60 Y) (designed binder)
chain: B1 chain with N10Y, N45H, N60Y
B4: pAM143 (B2 domain of Protein L; pos 10 N, pos 45 N, pos 60 N) (protein)
chain: PKEEVTIKANLIYADGKTQTAEFKGTFEEAAAEAYRYADALKKDNGEYTVDVADKGYTLNIKFAGKEKTPEE
B5: pAM169 (B2 domain of Protein L; pos 10 Y, pos 45 H, pos 60 Y) (designed binder)
chain: B4 chain with N10Y, N45H, N60Y
B6: pAM156 (B2 domain of Protein L; pos 10 Q, pos 45 A, pos 60 Q) (designed binder)
chain: B4 chain with N10Q, N45A, N60Q
B7: pAM145 (B5 domain of Protein L with H45N backbone; pos 10 N, pos 45 N, pos 60 N) (designed binder)
chain: KEQVTIKENIYFEDGTVQTATFKGTFAEATAEAYRYADLLSKENGKYTADLEDGGYTINIRFAGKEEPEE
B8: pAM180 (B5 domain of Protein L; pos 10 N, pos 45 H, pos 60 N) (protein)
chain: B7 chain with N44H
B9: pAM171 (B5 domain of Protein L; pos 10 Y, pos 45 H, pos 60 Y) (designed binder)
chain: B7 chain with N9Y, N44H, N59Y
B10: pAM158 (B5 domain of Protein L; pos 10 Q, pos 45 A, pos 60 Q) (designed binder)
chain: B7 chain with N9Q, N44A, N59Q
B11: pAM141 (B1 domain of Protein L; pos 10 N, pos 45 N, pos 60 N) (protein)
chain: SEEEVTIKANLIFANGSTQTAEFKGTFEKATSEAYAYADTLKKDNGEYTVDVADKGYTLNIKFAGKEKTPEE
B12: pAM167 (B1 domain of Protein L; pos 10 Y, pos 45 H, pos 60 Y) (designed binder)
chain: B11 chain with N10Y, N45H, N60Y
B13: pAM154 (B1 domain of Protein L; pos 10 Q, pos 45 A, pos 60 Q) (designed binder)
chain: B11 chain with N10Q, N45A, N60Q
B14: pAM144 (B4 domain of Protein L; pos 10 N, pos 45 N, pos 60 N) (protein)
chain: PKEEVTIKANLIYADGKTQTAEFKGTFAEATAEAYRYADLLAKENGKYTADLEDGGYTINIRFAGKKVDEKPEE
B15: pAM170 (B4 domain of Protein L; pos 10 Y, pos 45 H, pos 60 Y) (designed binder)
chain: B14 chain with N10Y, N45H, N60Y
B16: pAM157 (B4 domain of Protein L; pos 10 Q, pos 45 A, pos 60 Q) (designed binder)
chain: B14 chain with N10Q, N45A, N60Q
B17: pAM148 (C2 domain of Protein L; pos 10 N, pos 45 N, pos 60 N) (protein)
chain: PKEEVTIKVNLIFADGKTQTAEFKGTFEEATAKAYAYADLLAKENGEYTADLEDGGNTINIKFAGKETPETPEE
B18: pAM162 (C2 domain of Protein L; pos 10 Q, pos 45 A, pos 57 Y, pos 60 Q) (designed binder)
chain: B17 chain with N10Q, N45A, N57Y, N60Q
B19: pAM175 (C2 domain of Protein L; pos 10 Y, pos 45 H, pos 57 Y, pos 60 Y) (designed binder)
chain: B17 chain with N10Y, N45H, N57Y, N60Y
B20: pAM149 (C2 domain of Protein L; pos 10 N, pos 45 N, pos 57 Y, pos 60 N) (designed binder)
chain: B17 chain with N57Y
B21: pAM174 (C2 domain of Protein L; pos 10 Y, pos 45 H, pos 60 Y) (designed binder)
chain: B17 chain with N10Y, N45H, N60Y
B22: pAM151 (C3 domain of Protein L; pos 10 N, pos 39 D, pos 45 N, pos 57 Y, pos 60 N) (designed binder)
chain: B17 chain with T18I, N57Y
B23: pAM161 (C2 domain of Protein L; pos 10 Q, pos 45 A, pos 60 Q) (designed binder)
chain: B17 chain with N10Q, N45A, N60Q

Biological target: polyclonal IgG (Gammanorm, Octapharma, Sweden)
Test: SPR (Biacore 8K+), variant amine-coupled to CM5, Gammanorm as analyte, steady state fit

| Binder | Kd [nM] |
| --- | --- |
| B1 | 61 |
| B2 | 103 |
| B3 | 110 |
| B4 | 36 |
| B5 | 76 |
| B6 | 92 |
| B7 | 11 |
| B8 | 21 |
| B9 | 40 |
| B10 | 24 |
| B11 | 48 |
| B12 | 97 |
| B13 | 65 |
| B14 | 38 |
| B15 | 49 |
| B16 | 38 |
| B17 | 35 |
| B18 | 39 |
| B19 | 57 |
| B20 | 45 |
| B21 | 105 |
| B22 | 30 |
| B23 | 110 |
